Key:
[1] = target: Human PD-1 (soluble analyte, Octet RED 96) (human) (UniProt Q15116); assay: Octet RED 96
[2] = target: cynomolgus monkey PD-1 (soluble analyte, Octet RED 96) (UniProt B0LAJ3); assay: Octet RED 96
[3] = target: human PD1 receptor on Jurkat-PD1-NFAT-Luc2 reporter cells (human) (UniProt Q15116); assay: cell-based or functional assay
[4] = target: FcRn; assay: Octet RED 96
[5] = target: FcgRIIIaV; assay: Octet RED 96
[6] = target: FcgRIIaH; assay: Octet RED 96
[7] = target: FcgRIIb; assay: Octet RED 96
[8] = target: FcgRIa; assay: Octet RED 96

Sequence of human PD1 receptor on Jurkat-PD1-NFAT-Luc2 reporter cells (human) (Q15116 25-288): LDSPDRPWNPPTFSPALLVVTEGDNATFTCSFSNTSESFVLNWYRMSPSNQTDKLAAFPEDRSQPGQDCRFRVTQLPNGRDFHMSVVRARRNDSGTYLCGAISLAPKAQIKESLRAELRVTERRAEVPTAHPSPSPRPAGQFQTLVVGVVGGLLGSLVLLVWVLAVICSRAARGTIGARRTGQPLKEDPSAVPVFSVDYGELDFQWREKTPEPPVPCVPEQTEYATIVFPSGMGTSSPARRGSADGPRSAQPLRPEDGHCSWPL
Sequence of Human PD-1 (soluble analyte, Octet RED 96) (human) (Q15116 25-167): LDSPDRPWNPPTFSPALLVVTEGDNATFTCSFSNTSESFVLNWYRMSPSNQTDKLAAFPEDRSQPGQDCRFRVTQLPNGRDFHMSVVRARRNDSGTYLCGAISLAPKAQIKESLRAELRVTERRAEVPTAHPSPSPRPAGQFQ

Substance | Kd [1] | Kd [2] | effective dose (ED50), reactivation of NFAT-luciferase luminescence in Jurkat-PD1-NFAT reporter line [3] | Kd [4] | Kd [5] | Kd [6] | Kd [7] | Kd [8]
BCD-100 | 0.186 nM | < 0.001 nM |  |  |  |  |  | 
BCD-100 (antibody) |  |  | 115 |  |  |  |  | 
Nivolumab IgG4 |  |  |  | 9.52 nM | 4200 nM | 1600 nM | 280 nM | 64 nM
Pembrolizumab IgG4 |  |  |  | 5.1 nM | 5000 nM | 1300 nM | 2300 nM | 50 nM

Source: patent US20190127478A1
